# Article PMC10157364 (2023)
# B1: ON103 (antibody, V domains shown)
# VH: EVQLQESGGGLVQPGGSLRLSCAASGFTFSIYSMNWVRQAPGKGLEWVSSIGSSGGTTYYADSVKGRFTISRDNSKNTLYLQMNSLRAEDTAVYYCAGSQYLYGMDVWGQGTTVTVSS
# VL: DIQMTQSPSSLSASVGDRVTITCRSSQRILTYLNWYQQKPGKAPKLLIYVGSHSQSGVPSRFRGSGSETDFTLTISGLQSEDSATYYCQQSFFTPLTFGGGTKVEIK
# B2: ON203 (antibody, V domains shown)
# VH: EVQLQESGGGLVQPGGSLRLSCAASGFTFSIYSMNWVRQAPGKGLEWVSSIGSSGGTTYYADSVKGRFTISRDNSKNTLYLQMNSLRAEDTAVYYCAGSQYLYGMDVWGQGTTVTVSS
# VL: DIQMTQSPSSLSASVGDRVTITCRSSQRIMTYLNWYQQKPGKAPKLLIYVGSHSQSGVPSRFRGSGSETDFTLTISGLQPEDSATYYCQQSFFTPLTFGGGTKVEIK
# B3: C0008 (antibody, V domains shown)
# VH: EVQLLESGGGLVQPGGSLRLSCAASGFTFSIYSMNWVRQAPGKGLEWVSSIGSSGGTTYYADSVKGRFTISRDNSKNTLYLQMNSLRAEDTAVYYCAGSQWLYGMDVWGQGTTVTVSS
# VL: DIQMTQSPSSLSASVGDRVTITCRSSQRIMTYLNWYQQKPGKAPKLLIFVASHSQSGVPSRFRGSGSETDFTLTISGLQPEDSATYYCQQSFWTPLTFGGGTKVEIK
# What was measured:
# [1] = target: T1, human MIF treated with 0.2% Proclin300 (oxMIF surrogate) (human, UniProt P14174 1-115, treated with 0.2% Proclin300 to transform MIF into an oxMIF surrogate); experiment: ELISA
# T1 chain: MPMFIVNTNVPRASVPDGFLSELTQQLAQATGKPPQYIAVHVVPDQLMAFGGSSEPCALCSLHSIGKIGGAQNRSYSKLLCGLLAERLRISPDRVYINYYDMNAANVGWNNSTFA
# [2] = target: mouse MIF treated with 0.2% Proclin300 (oxMIF surrogate) (mouse, UniProt P34884 1-115, treated with 0.2% Proclin300 to transform MIF into an oxMIF surrogate); experiment: ELISA
# [3] = target: T1, human MIF treated with 0.2% Proclin300 …; experiment: SPR
Binder,EC50 [1] [nM],EC50 [2] [nM],Kd [3] [nM]
B1,0.6,4.6,3.7
B2,0.7,5.2,6.1
B3,0.6,3.1,3.5
